Test results as given in article PMC6212840.
Like-named read-outs stand apart in the source and are kept apart here.

What was measured:
[1] = target: TbMP18-FL (aa 19-164) (Trypanosoma brucei); assay: SEC
[2] = target: TbMP18-FL (aa 19-164) (Trypanosoma brucei)

Question: Which stoichiometry N [1] does the source give for TbMP18-FL (aa 19-164) (natural protein) here?
Answer: The stoichiometry N was 4.

Question: What does the source list for TbMP24-FL (aa 47-246) (natural protein)?
Answer: stoichiometry N [2]: 1.1; stoichiometry N [1]: 1.5

B1: TbMP63-OB (aa 472-587) (domain or fragment)
chain: SAIGASWAETELIPHAQCVSNITIVGRVLDVSQASENVSHVTVFVEGERSGEEETLTLCCFGEVSQKIRGTLKRNATIFASGTLRLHPVYEASNNKYYVSPVVHVSMPTGTLAVIT
Question: How did the stoichiometry N [2] turn out when B1 was run?
Answer: Its stoichiometry N is 0.67.
